According to paper doi:10.1101/2025.07.06.663161 (bioRxiv, 2025):

B1: Recombinant wild-type Cdc19, Strep-tagged (SUMO tag cleaved off) (natural protein)
chain: MSRLERLTSLNVVAGSDLRRTSIIGTIGPKTNNPETLVALRKAGLNIVRMNFSHGSYEYHKSVIDNARKSEELYPGRPLAIALDTKGPEIRTGTTTNDVDYPIPPNHEMIFTTDDKYAKACDDKIMYVDYKNITKVISAGRIIYVDDGVLSFQVLEVVDDKTLKVKALNAGKICSHKGVNLPGTDVDLPALSEKDKEDLRFGVKNGVHMVFASFIRTANDVLTIREVLGEQGKDVKIIVKIENQQGVNNFDEILKVTDGVMVARGDLGIEIPAPEVLAVQKKLIAKSNLAGKPVICATQMLESMTYNPRPTRAEVSDVGNAILDGADCVMLSGETAKGNYPINAVTTMAETAVIAEQAIAYLPNYDDMRNCTPKPTSTTETVAASAVAAVFEQKAKAIIVLSTSGTTPRLVSKYRPNCPIILVTRCPRAARFSHLYRGVFPFVFEKEPVSDWTDDVEARINFGIEKAKEFGILKKGDTYVSIQGFKAGAGHSNTLQVSTV
B2: Recombinant phosphomimicking Cdc19-3E (S56E, S70E, S175E), Strep-tagged (SUMO tag cleaved off) (natural protein)
chain: MSRLERLTSLNVVAGSDLRRTSIIGTIGPKTNNPETLVALRKAGLNIVRMNFSHGEYEYHKSVIDNARKEEELYPGRPLAIALDTKGPEIRTGTTTNDVDYPIPPNHEMIFTTDDKYAKACDDKIMYVDYKNITKVISAGRIIYVDDGVLSFQVLEVVDDKTLKVKALNAGKICEHKGVNLPGTDVDLPALSEKDKEDLRFGVKNGVHMVFASFIRTANDVLTIREVLGEQGKDVKIIVKIENQQGVNNFDEILKVTDGVMVARGDLGIEIPAPEVLAVQKKLIAKSNLAGKPVICATQMLESMTYNPRPTRAEVSDVGNAILDGADCVMLSGETAKGNYPINAVTTMAETAVIAEQAIAYLPNYDDMRNCTPKPTSTTETVAASAVAAVFEQKAKAIIVLSTSGTTPRLVSKYRPNCPIILVTRCPRAARFSHLYRGVFPFVFEKEPVSDWTDDVEARINFGIEKAKEFGILKKGDTYVSIQGFKAGAGHSNTLQVSTV

Target: the molecule itself
Experiment: atomic force microscopy

Row | Protein | binding result
1 | B1 | binds
2 | B2 | binds
